Experimental data from paper PMC8551079 (iScience, 2021).

Biological target: T1, glutathione S-transferase (GST)-fused ABI5 (Arabidopsis thaliana, UniProt Q9SJN0 1-442)
T1 sequence (looked up): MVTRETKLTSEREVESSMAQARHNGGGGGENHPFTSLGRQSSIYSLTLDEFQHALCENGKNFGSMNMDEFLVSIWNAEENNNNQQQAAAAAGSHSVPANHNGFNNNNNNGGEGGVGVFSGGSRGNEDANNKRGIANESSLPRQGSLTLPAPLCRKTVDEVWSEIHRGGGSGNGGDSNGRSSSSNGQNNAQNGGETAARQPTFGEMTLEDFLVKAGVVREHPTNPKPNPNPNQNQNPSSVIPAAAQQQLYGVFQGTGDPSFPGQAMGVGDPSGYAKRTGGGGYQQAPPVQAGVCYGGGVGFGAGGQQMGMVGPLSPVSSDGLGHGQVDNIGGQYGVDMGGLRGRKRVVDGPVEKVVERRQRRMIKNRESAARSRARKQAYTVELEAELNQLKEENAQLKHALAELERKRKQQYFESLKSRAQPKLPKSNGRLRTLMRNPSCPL
Assay: pull-down

B1: MYB70-His (natural protein)
chain: not shown
binding result: binds
